Assay: purified protein yield per well (BCA); higher = higher soluble expression
How it was run: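 Purified protein yield per well is reported, as measured by the Pierce Rapid Gold BCA kit. The enzymes came from E. coli C41(DE3) autoinduction cultures of 2 mL with 100 µg/mL kanamycin, held at 37 °C for 2 h and 18 °C for 40 h, then lysed and purified on Ni-charged magnetic beads with SUMO protease release. The detection threshold is 25 ug (0.1 mg/mL), and lower values are under it.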

Sequence	purified protein yield per well
ADNPYQRGPDPTLAGVAASRGPFATAQMSVAPGNGFNGGTVYYPTDTSAGTWGAVAIVPGYTALFADEEAWMGPWLSSFGFVVIGIETNSRTDYDAARGTQLLAALDYLTQRSPVRDRVDTSRLSVIGHSMGGGGVVYASEHRPSLKAAVALAPFSPSQNMSTDQVPTMVMAGQNDTVVTPSYLDGLYATMPAAAQSDFVQIAGADHVYYTHPQSTEMRLLIPWLKIFVDNDTRYTQFLCPSLADPSGISIYHSKCPYVPPGGTTSGGTTSGGTTTGGTTTGGTTTGGTTTGGTTTGGTVGGGTTSGGTSGGACTATYTTVNTWSGGFQGEVKVTAGGQPISGWTVRWTLGSGQSISQVWNGAVTTSGSDVSVGNVSYNGSLQPSTSTTFGFLGAGAPTDASLSCTSP [ESM049]	< 25 µg
DPTAFAVHGPDPTAQSVQAQRGPYATSRTTVSSGTGFNRGTIYYPTTTSEGTFSAVAVIPGFTESESTMSWYGTTLSSHGFVVFTLEAEGGLDFPDARADQLLAALDYLVNSSSVRDRVDRNRLGVMGHSMGGGGTLEAANERPSLRAAIPLAAWHNTKNFPQVQAATLVISAEGDSVASPASHSEPFYQGLRSAEKAYLELNNGNHFTTNSYTPTVTKYAVSWLKRFLDDDTRYSQFLCPPPPPDSNINEYRHTCPV [DP055]	< 25 µg
MGFGGGTIYYPTTSGQYGAIAVCPGFTGTSSSISWFARRLATHGFVTIAMNTTTTLDYPSSRATQLAAALRYLLNSSSSTIRSRIRTADRGVAGHSMGGGGTLIASANDSTLRAGIPMTPWNTYTSFSSVRVPQMIFGADGDTIAPYATHARPFYNSISLAEKAYALLNGAGHFTPNSTDQRIRRYGVAFAKRFVDGDTRYNPFLCGAEHTAYATSSRFQTYLSNCPY [ESM185]	< 25 µg
MPRDGERKQKPEGARVRAYRAGPGSPPRPPRPVRLALLAVAFVTAAVAALFAVQPASAQPSAAAVTPNSTQRGPDPTIQSIEASRGTFATAQSSVAPGNGFNGGVIYYPTDTSQGTWGALAIVPGYTAKCANEEAWMGPWLASFGFVVICIETNSTTDFDVARGQELLAALNWLTTASPVRNEIDPNRLAVLGHSAGGAGAIEAAEQRPSLRAMIGLAPGFPGQGLSMLTDRVPTLVVGGQNDTVVTPSYLSGLYATMPASTQSAFAQIAGADHVYYTHANNVEMKLIIPWLKIFVDGDTRYEQFLCPTLPDPSTISIYQPKCPYVPPGGGSPSPSASASASASASASASASASASASASASASSSPSASASASASSSPSGVPAGGCAAVYQAVGSWPGGYQAQVTVTAGGAPITGWSVRWNLSSGQSISSLWNGSYTVSGSSVTVANASYNGTLAAGASTTFGFTANGAPSTPTLTCTGK [ESM145]	< 25 µg
GRMDSNVIDASGYSDLSLSFDRTTSGLDFGESGRVSVSINGGSFTVLESLRRASGRTTLQLGSSADNSSIQIRYQTFASSFYEIYTIDNIVIEGNSDSPPPPPPTGDLAAIGAYLETGGTATTPDQFSFTNTGDINIDSLTIDLSGGNASPVFDPNGVSFTVTGSDNVGFSGNFGLSGNSLLTLNFIDFGPGETFSFSGDLDDSNGSYTTGADVMGAELTVSASGNPSVSASFTVDSSNADRAVVNIGGSTPPPPIGGGCGPDPTVASLEASTGPFSFSNIDVPSSAQGFRNGTIYYPTNAPSDCTFGVISVVPGFLANESSIDWWGPRLASHGFIVITINTNTITDQPNSRALQSIAALNYAVNLGNSSSSAIGGKVDSSKQGVMGWSMGGGGALRAAADNPYLKAAMPQAPFNSGPNDFDEITVPTLIIACENDTVASVGIHASPFYNAISSTTEKGFLEINNGNHSCANGGSNRDILGKYGVSWMKRFMDDDTRYSQFLCDVNHTSDSAISDYRENCPY [TEP172]	< 25 µg
QTPQAPTAASLNATSGPLSVSTQSVSSLSARGFGGGTVYYPTTAGRYGAVAISPGFTATQSSVAWLGRRLASHGLVVITINTNSTLDQPASRATQLMAALTYVTSASGTTVQSRVDPQRLAVAGHSMGGGGALIAARDNPTLKASLPLTPWNTTTNFSGIRVPTLIVGADGDTVASVTAHARPFYASLPSNTFKAYAELNSASHFTPNSANTPIGRYGVTWLKRFVDNDSRYSPFLCGAEHQAYATAQVFDRYQQNCPY [ESM188]	< 25 µg
QNPYERGPAPSTASLEASRGPFATSSFTVSRPSGYGAGTVYYPTNAGGTVGAIAIVPGYTARQSSINWWGPRLASHGFVVITIDTNSTSDQPASRSRQQLAALDQVATLNSTSSSPIYNKVDTSRMGVMGWSMGGGGSLISAQNRSSLKAAAPQAPWNSSTNFSSVTVPTLIFACESDAIARVGSHASPMYNSMTRNPKQFMEIEGGSHSCANSGNSNQALIGKKGVAWMKRFMDNDTRYTSFACSNPNSTRVSDFRVARCS [ESM114]	< 25 µg
DGPYDVDWIYESDGLRNGPYYLGATLYYPINAPEPLASIVIVPGWGMPESTMQDWGPFFASWGIIAMTIGTNNPSTDWPEDRAEALLDAIETIKQENDRIDSPVNGRIDLNSFAVSGWSMGGGGAQLAAVMEPTLKAVIALCPWLDNWVLEPDDLNHSVPTLIFSGQYDVNAPPYLHANIHYNYTPSTTDKLLFEVEYGDHYVANGPNGGSGYVGDKALEWIN [TEP053]	< 25 µg
MEAIVRRGGTRGQVTGILVAVLAMVVALAGAVLAARPALAQPRDTAPGNPYQRGPDPTVAMIEASAGPFATASTSVPAGHGFNGGTVYYPTDTSLGTWGALAIVPGYSALFANEEAWMGPWLASFGFVVIGVETTTRTDSADARGTELLAALNYLTTQSPVRDRVDPNRLSVLGHSAGGAGAMLAAERQPTLKAAVGLAPGSPVGNLSLAADTVPTMVIGGQNDAVVTPSYLSGLYATMPASTQSDFAQVAGADHVYYTHPNNVEMKLLIPWLKTFLDNDTRYTPFLCPAPPDPSSISLYTPKCPYVPGGSAPGGGNTGALHAVGAAKCLAAPSTGAPGAQVTIGTCGGQAGQIWTHTAAAQLTVTLGGATLCLDASGQGSSPGTKVIVWSCNGQVNQQWNLNADGTVTGAQSGLCLDVTGASTADGAPVELWSCNGGGNQQWHLG [TEP068]	< 25 µg
AEDNPHERGPAPTQQSIEAEKGPFEVDKVTVPGGDGFAGGTIYFPKDTSKGKFGGVAISPGFMSFEAMVSWYGPRLASQGFVVFTIGTFTPMDIPSSRADQLLASLKFLVEKSPAKDRVDGTRLALMGHSMGGGGTLHAAARTPGLQAAIPLTPWELTSDFSKVQVPTLVFTGQADFVAPASMGKSFYQSIPDSTEKGYVELAGGSHFDPLFPNVTYAKYSISWLKRFVDNDTRYDQFLCPVPKDPKLSAIEETCPLG [DP013]	< 25 µg
NPYERGPAPTTASLEASRGPFATSSFTVSRPSGYGAGTVYYPTNAGGTVGAIAIVPGFLARQSSINWWGPRLASHGFVVITIDTNSTFDQPTSRSRQQLAALDQVAALARTSSSPIYNRVDTTRMGVMGWSMGGGGTLISAQNRPSLKAAAPQAPWNNSTNFSSVTVPTLILACESDSTAPVNQHASPFYNSMSRNSKQYLEINNGSHSCANSGNSNQPLIGKRGVAWMKRFMDNDTRYTSFACANPNSTRVSEFRTANCS [ESM076]	< 25 µg
MQVARDGSAFQSPPETSGGIRSWRPTGRLWQRGVAAVAAAATLGALTIALTAVQPAAGAENPYQRGPDPTPASVSANRGTFATAQVSVPAGNGFGGGVIYYPTDTSQGKFGAIAIVPGYTATWAAEGAWMGPWLASFGFVVIGIDTNTRNDWDNARGQQLLAALDYLTQRSSVRDRVDATRTAVMGHSMGGGGAAYASLQRPSLKTSIGLAPASFSQNLTTTKVPTMLLSGQNDTTVSPASVLSLYNGIPAGVEKAYLELSNVGHLFPTSNNPTMMRNIIPWFKIFIDSDTRYTQFLCPLSNTTGIRSYQSTCPLVPSTPPTTTTTTTTTSTTTTTDTTTTTTDTTTTTTDSTTSTTTTTPGSGPSCTAAYTVVNQWGGGFQAEVRVAAGSTPISGWTVTWAWANGQTVTQQWSATITSSGPNVTAVNVGYNGNLGAGAATTFGFIASVNGANTPPTLACAAR [ESM022]	< 25 µg
GQSCDSLLLQSITNPGPFPVNNIDENSGIRNGPNYNGSTIYYPANNVNTLYSSIIMVPGFMNTELTIQNWGPFFASHGIITMTIGANGLTDTHIQRRDALLDAIVSLKNENQRVASPLFGKIDTFSIAVGGVSKGGGGAQLVPAIDLSIKAIVSLYPWLDNPTSSDLNHSVPVIIISGQLDALAPPSLHADIHYNLTPNTTNKLKYEVAFGTHDVISGPNGGNGEVGIRVISWLQNFLLSDSCYCPITILDASTSSSYITNVVCSNTTVGISQLEPYFLKKVLKIIDVLGREAEGNKNEPLFYIYNDGTVEKKIIIE [TEP017]	< 25 µg
